The source of these data is the supplement of paper PMC9170038.

The subject of this data set is MS2 coat protein. Briefly: apparent KD of MS2 coat protein; designed switch direction (-1 OFF switch, 1 ON switch): -1; higher = weaker reporter binding. The method, boiled down: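 The buffer was Tris-HCl pH 7.5 with KCl, MgCl2, BSA, DTT, tRNA and Tween-20. In it, SNAP-549-labelled MS2 coat protein was titrated in doubling steps from 0.7 or 1.5 nM to 3 µM over chip-bound RNA switches transcribed by stalled E. coli RNA polymerase on Illumina chips. Apparent KD is the per-design median over clusters of curve fits to normalised fluorescence.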

The mark [1] stands for this setting: input ligand: microRNA oligo, concentration not stated.
Where [2] appears, read: Eterna round: R95, input ligand: microRNA oligo, concentration not stated.
The mark [3] stands for this setting: Eterna round: R95, input ligand: FMN 200 uM.
[4] abbreviates: Eterna round: R95, input ligand: none.

In the case of “AUUAAUCAUGUAGGAUAUGCGUGGCGAAGCUAUGCAGAAGGACAUGAGGAUCACCCAUGUUCUAGCGUCUGCGUACAGAUGCUA [JL ENG1 1.37] (Eterna round: R96, puzzle: Exclusion NG 1)”, the “apparent KD of MS2 coat protein” value runs as follows: (input ligand: FMN 200 uM) 349 nM; under setting [1], 29.5 nM; (input ligand: none) 37.6 nM.

“AUUAGUAAUAAGGAUAUCACUAGCCUCGGCUAGUGAGAAGGUAUUACAUGAGGAUCACCCAUGUGAUCAAUUAA [E6/3-A2] (Eterna round: R97, puzzle: Exclusion 6)”: the “apparent KD of MS2 coat protein” value (input ligand: FMN 200 uM) was 287 nM and the “apparent KD of MS2 coat protein” value (input ligand: none) amounted to 474 nM.

For the sequence “AUUAUACAUGUAGGAUAUCUGCACGAUUAGUGCAGAGAAGGACAUGAGGAUCACCCAUGUAGAUCAAUAAUAAUUAAUUUAAUU [ENG1/6-B1] (Eterna round: R96, puzzle: Exclusion NG 1)”, the “apparent KD of MS2 coat protein” value runs as follows: (input ligand: FMN 200 uM) 500 nM; under setting [1], 122 nM; (input ligand: none) 156 nM.

As to “AUUAUAUAGAAAGGAUAUAGAUUAUUAUUUUAACAUGAGGAUCACCCAUGUAGCCUUAUGUAUAACUAGAAGGUUCAUUUAUUA [Title] (Eterna round: R96, puzzle: Exclusion NG 2)”, under setting [1], the “apparent KD of MS2 coat protein” value was 57.9 nM.

Take “AUUAUAUAGACAGGAUAUUGAUUAUUAUUUUAACAUGAGGAUCACCCAUGUAGCCUUAUGUAUAACAAGAAGGGUCAUUUAUUA [Title] (Eterna round: R96, puzzle: Exclusion NG 2)”: the “apparent KD of MS2 coat protein” value under setting [1] came to 124 nM.

Take “AUUAUAUAGUAAGGAUAUUGAUUAUUAUUUUAACAUGAGGAUCACCCAUGUAGCCUUAUGUAUAACAAGAAGGUACAUUUAUUA [Title] (Eterna round: R96, puzzle: Exclusion NG 2)”: under setting [1], the “apparent KD of MS2 coat protein” value was found to be 44.5 nM.

As to “AUUAUGUGAGGAUAUUAGUAGUAAAUGAAUAAAAUUAUUACUGAGAAGGCACAUGAGGAUCACCCAUGUUCCUU [Mat - Exclusion 4 - Eli Mod - D6] (Eterna round: R97, puzzle: Exclusion 4)”, the “apparent KD of MS2 coat protein” value runs as follows: (input ligand: FMN 200 uM) 155 nM; (input ligand: none) 18.1 nM.

For “AUUAUUACAUAGGAUAUAAAAGAGCUCACUCAGUUAGAAGGAUGUACAUGAGGAUCACCCAUGUGAUUCUGGCU [Eternabot (L2) Solution 58] (Eterna round: R97, puzzle: Exclusion 6)”, the “apparent KD of MS2 coat protein” value is 26.3 nM (input ligand: FMN 200 uM) and 25.2 nM (input ligand: none).

In the case of “AUUCAUGCAGGAUAUACAUGAGGAUCACCCAUGUUAAUUUCUACAAGGCGGCAUCUAUGUAGAAGGGUAUGAAG [Eternabot (L2) Solution 33] (Eterna round: R97, puzzle: Exclusion 3)”, the “apparent KD of MS2 coat protein” value stood at 35.5 nM (input ligand: FMN 200 uM) and 24.6 nM (input ligand: none).

On to “AUUCCCGGUGUUAGGAUAUCCAACGCCCACGCGAUGGAGAAGGGACAUGAGGAUCACCCAUGUAGAGCUGCAUC [Aredan] (puzzle: Brourd's mod of Exclusion 4)”, for which, under setting [2], the “apparent KD of MS2 coat protein” value is 11.7 nM.

“AUUCUCUCGGUGAGGAUAUGAGUAACGACGGCAGAUUAGAAGGUACAUGAGGAUCACCCAUGUGUGUUUGGGAU [Eternabot (L1) Solution 75] (Eterna round: R97, puzzle: Brourd's mod of Exclusion 4)”: the “apparent KD of MS2 coat protein” value came out at 41.7 nM (input ligand: FMN 200 uM) and 47.5 nM (input ligand: none).

For “AUUGACUGAGGAUAUUGUGCUGCUGACAUGAGGAUCACCCAUGUAUGUUAACUCGGCCGUCGAGAAGGCAGAAAUG [BotMod 20 - Jieux - Exclusion 5] (Eterna round: R97, puzzle: Exclusion 5)”, the “apparent KD of MS2 coat protein” value is 22.6 nM (input ligand: FMN 200 uM) and 28.2 nM (input ligand: none).

As for “AUUGAUAUUGAGGAUAUGCUUUUAUUUGUUCUUGCAGAAGGCGAUACAUGAGGAUCACCCAUGUUUAUGGAAGU [JR_E6_Sub089] (puzzle: Exclusion 6)”, the “apparent KD of MS2 coat protein” value under setting [2] was found to be 38.9 nM.

Turning to “AUUGAUGUUGAGGAUAUGCUUAUAUUUAUACUUGCAGAAGGCGAUACAUGAGGAUCACCCAUGUUCAUGGAAGU [JR_E6_Sub092] (puzzle: Exclusion 6)”, the “apparent KD of MS2 coat protein” value under setting [2] turned out to be 26.2 nM.

“AUUGAUGUUGAGGAUAUGCUUUUAUUUAUAAUAGCAGAAGGCGAUACAUGAGGAUCACCCAUGUUCAUGGUUUU [JR_E6_Sub096] (puzzle: Exclusion 6)”: the “apparent KD of MS2 coat protein” value under setting [2] amounted to 24.5 nM.

Take “AUUGUAGUUGUGAGGAUAUCGUUGAUUUUUUGAAACGAGAAGGCACAUGAGGAUCACCCAUGUUAGUUGUUGGU [JR_BMOE4_Sub056] (puzzle: Brourd's mod of Exclusion 4)”: under setting [2], the “apparent KD of MS2 coat protein” value was found to be 65.4 nM.

Take “AUUGUAUAGGAAGGAUAUAGAAUAUUAUUUUAACAUGAGGAUCACCCAUGUAACCUUAUGUGUAGCUAGAAGGUCCAUUUGUUA [Title] (Eterna round: R96, puzzle: Exclusion NG 2)”: the “apparent KD of MS2 coat protein” value under setting [1] was 228 nM.

On to “AUUGUAUAGGAAGGAUAUAGAAUAUUAUUUUAACAUGAGGAUCACCCAUGUAACCUUAUGUGUAGCUAGAAGGUCCGUUUAUUA [Title] (Eterna round: R96, puzzle: Exclusion NG 2)”, for which, under setting [1], the “apparent KD of MS2 coat protein” value amounted to 96.5 nM.

As for “AUUGUUUAUGUAGGAUAUGCCUGGCGUGCCUUUGCAGAAGGACAUGAGGAUCACCCAUGUAACAUGAGGCUCACCCUUGUCGCA [salish99_ExNG1_r04_114] (Eterna round: R96, puzzle: Exclusion NG 1)”, the “apparent KD of MS2 coat protein” value is, setting by setting: (input ligand: FMN 200 uM) 147 nM; under setting [1], 81.4 nM; (input ligand: none) 95.5 nM.

For “AUUGUUUGAUACCUCUAAUACAUGAGGAUCACCCAUGUUAUCGAGGAUAUGCAUUAGAGUGGAUAGCAGAAGGCGAAGUAAUUG [JR_ExcNG3_Sub029] (Eterna round: R96, puzzle: Exclusion NG 3)”, the “apparent KD of MS2 coat protein” value is, setting by setting: (input ligand: FMN 200 uM) 13.7 nM; under setting [1], 13.4 nM; (input ligand: none) 16.5 nM.

Regarding “AUUGUUUUAGGAUAUACAUGAGGAUCACCCAUGUGUGCGAUGCGGAUCGGGAAAGCCUGUAGAAGGAAGACAUG [Eternabot (L1) Solution 74] (Eterna round: R97, puzzle: Exclusion 3)”, the “apparent KD of MS2 coat protein” value runs as follows: (input ligand: FMN 200 uM) 33.4 nM; (input ligand: none) 30.8 nM.

“AUUUAAACAUAGGAUAUCGAAUUUAUUAUUUAACGAGAAGGAUGAACAUGAGGAUCACCCAUGUGGUAUCAUGG [Mat - Exclusion 6 - JL Mod - D25] (puzzle: Exclusion 6)”: the “apparent KD of MS2 coat protein” value runs as follows: under setting [3], 693 nM; under setting [2], 815 nM; under setting [4], 260 nM.

On to “AUUUAAUUUAAUAAGAUCACAUGAGGAUCACCCAUGUAUAUAUAGGAUAUCAGCUCGAAUAGAGCUGAGAAGGAUAUAUACUAU [ExNG3/7-B4] (Eterna round: R96, puzzle: Exclusion NG 3)”, for which the “apparent KD of MS2 coat protein” value under setting [1] came to 276 nM.

“AUUUAAUUUAAUAAGAUCACAUGAGGAUCACCCAUGUAUAUAUAGGAUAUCAGCUCGAUUAGAGCUGAGAAGGAUAUAUACAUG [ExNG3/8-A1] (Eterna round: R96, puzzle: Exclusion NG 3)”: the “apparent KD of MS2 coat protein” value amounted to 48.9 nM (input ligand: FMN 200 uM), 21.6 nM under setting [1] and 38.1 nM (input ligand: none).

As for “AUUUAAUUUAAUAAGAUCACAUGAGGAUCACCCAUGUAUAUAUAGGAUAUCAGCUCGAUUAGAGCUGAGAAGGAUAUAUACUAU [ExNG3/7-B1] (Eterna round: R96, puzzle: Exclusion NG 3)”, the “apparent KD of MS2 coat protein” value under setting [1] amounted to 422 nM.

Consider “AUUUAAUUUAAUAAGAUCACAUGAGGAUCACCCAUGUAUAUAUAGGAUAUCAGCUCGUGUAGAGCUGAGAAGGAUAUAUACAUG [ExNG3/8-A3] (Eterna round: R96, puzzle: Exclusion NG 3)”, for which the “apparent KD of MS2 coat protein” value under setting [1] stood at 15.4 nM.

As for “AUUUAAUUUAAUAAGAUCACAUGAGGAUCACCCAUGUAUAUAUAGGAUAUCAGCUCGUUUAGAGCUGAGAAGGAUAUAUACAUG [ExNG3/8-A2] (Eterna round: R96, puzzle: Exclusion NG 3)”, the “apparent KD of MS2 coat protein” value (input ligand: FMN 200 uM) was determined as 22.6 nM, the “apparent KD of MS2 coat protein” value under setting [1] amounted to 20.2 nM and the “apparent KD of MS2 coat protein” value (input ligand: none) came to 36.6 nM.

For “AUUUAAUUUAAUAAGAUCACAUGAGGAUCACCCAUGUAUAUAUAGGAUAUCAGCUCGUUUAGAGCUGAGAAGGAUAUAUACUAU [ExNG3/7-B2] (Eterna round: R96, puzzle: Exclusion NG 3)”, the “apparent KD of MS2 coat protein” value reads like this: (input ligand: FMN 200 uM) 190 nM; under setting [1], 237 nM; (input ligand: none) 278 nM.

With “AUUUAGAGAGGAUAUAUAUUGUGAAACAUGAGGAUCACCCAUGUAAUAAUAUGGAUGUAAAUAGAAGGCUCAUUUU [Mat - Exclusion 5 - JL mod - D10] (puzzle: Exclusion 5)”, the “apparent KD of MS2 coat protein” value under setting [3] turned out to be 40.2 nM, the “apparent KD of MS2 coat protein” value under setting [2] turned out to be 37.4 nM and the “apparent KD of MS2 coat protein” value under setting [4] was 41.8 nM.

For the sequence “AUUUAGUCAGGAUAUUAGUAGUAAAUAAAUAAAAUUAUUACUGAGAAGGGACAUGAGGAUCACCCAUGUGUCUA [Salish 062 v8] (Eterna round: R97, puzzle: Exclusion 4)”, the “apparent KD of MS2 coat protein” value stood at 44.4 nM (input ligand: FMN 200 uM) and 24.9 nM (input ligand: none).

Take “AUUUAUGGAGGAUAUACUUGAGGAUCACCCAAGUGGAGUCCCUUUUGGGCGGUAAAUAGUAGAAGGCCGUCUUA [jl-ex3-4.48 ViennaUCT mod] (Eterna round: R97, puzzle: Exclusion 3)”: the “apparent KD of MS2 coat protein” value was 20.9 nM (input ligand: FMN 200 uM) and 16.3 nM (input ligand: none).

Consider “AUUUAUGUUGAGGAUAUGCGAAUAAGUAUAGUUGCAGAAGGCGACACAUGAGGAUCACCCAUGUUCAUGGACCC [LRO-Ex6-02] (puzzle: Exclusion 6)”, for which the “apparent KD of MS2 coat protein” value is, setting by setting: under setting [3], 181 nM; under setting [2], 81.5 nM; under setting [4], 127 nM.

On to “AUUUAUGUUGAGGAUAUGCUAAAAUGUAUAGUUGCAGAAGGCGACACAUGAGGAUCACCCAUGUUCAUGGAAUU [LRO-Ex6-01] (puzzle: Exclusion 6)”, for which the “apparent KD of MS2 coat protein” value under setting [2] was determined as 31.3 nM.
